Experimental data published in patent US20250340655A1, “EPHA2-TARGETING ANTIBODIES AND THEIR APPLICATIONS IN CANCER TREATMENT” (TAIPEI MEDICAL UNIVERSITY, priority 2022, published 2025).

Experiments:
[1] = target: T1, endogenous EphA2 molecules on three strains of gastric cancer cells (Homo sapiens, UniProt P29317); assay: Flow cytometry binding on gastric cancer cells; details: flow cytometry (FIG. 15A)
T1 construct: identify endogenous EphA2 molecules on three strains of gastric cancer cells; endogenous in cells
T1 sequence (P29317 24-976): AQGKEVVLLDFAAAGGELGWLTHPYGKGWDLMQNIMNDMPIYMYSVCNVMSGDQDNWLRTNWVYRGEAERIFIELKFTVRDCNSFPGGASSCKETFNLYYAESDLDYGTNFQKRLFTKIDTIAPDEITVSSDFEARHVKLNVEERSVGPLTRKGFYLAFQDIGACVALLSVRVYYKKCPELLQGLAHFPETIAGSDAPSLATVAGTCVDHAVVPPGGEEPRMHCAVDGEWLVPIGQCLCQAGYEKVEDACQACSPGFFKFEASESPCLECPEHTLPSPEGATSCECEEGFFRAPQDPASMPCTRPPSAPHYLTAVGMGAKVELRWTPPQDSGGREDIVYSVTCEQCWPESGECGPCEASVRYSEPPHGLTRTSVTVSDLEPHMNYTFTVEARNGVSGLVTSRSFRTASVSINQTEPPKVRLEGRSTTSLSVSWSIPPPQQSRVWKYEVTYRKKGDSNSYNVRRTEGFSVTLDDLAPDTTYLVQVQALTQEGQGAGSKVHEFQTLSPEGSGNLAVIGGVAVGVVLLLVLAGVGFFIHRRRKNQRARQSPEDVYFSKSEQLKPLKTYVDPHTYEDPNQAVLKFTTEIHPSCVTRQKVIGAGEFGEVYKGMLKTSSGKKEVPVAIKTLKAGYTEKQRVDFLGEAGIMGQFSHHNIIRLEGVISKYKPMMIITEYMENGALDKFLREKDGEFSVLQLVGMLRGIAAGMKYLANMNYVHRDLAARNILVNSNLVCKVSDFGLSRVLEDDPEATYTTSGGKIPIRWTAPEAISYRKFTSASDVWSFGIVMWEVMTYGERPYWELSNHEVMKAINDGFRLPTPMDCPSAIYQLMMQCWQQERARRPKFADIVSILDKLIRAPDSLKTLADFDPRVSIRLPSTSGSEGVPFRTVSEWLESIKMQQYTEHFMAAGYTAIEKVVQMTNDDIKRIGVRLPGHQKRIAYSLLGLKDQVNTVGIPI
Source text: Flow cytometry was used to analyze the response of hSD5 IgG in identifying endogenous EphA2 molecules on the three strains of gastric cancer cell lines. PC represents the use of commercial Ab to determine the expression of EphA2 on cancer cells; NC represents the control group with irreverent of the isotype IgG1 antibody. The hSD5 was used to identify endogenous EphA2 molecules on three strains of gastric cancer cells by flow cytometry analysis. […] (FIG. 15A)

[2] = system: BxPc-3 cells; assay: Antibody internalization (endocytosis) assay; format: cell-based, human; details: BxPc-3, 1 h, 37° C. vs 4° C. (FIG. 6B)
Experimental: BxPc-3 cells were seeded on cover glasses placed in the wells of a 6-well culture plate. The BxPc-3 seeded glass slides were incubated with ephrin A1-Fc (Sino Biological) or IgG hSD5 for 1 h at 37° C. or 4° C. After washing with PBS, the cells were fixed with 100% ice methanol for 10 min. Next, the cells were stained with an FITC-conjugated anti-human Fc antibody and were subsequently mounted with ProLong Diamond Antifade Mountant comprising 4′,6-diamidino-2-phenylindole for nuclear counterstaining (Invitrogen). The cells were imaged using a confocal microscope (Leica Microsystems).

[3] = system: BxPc-3 tumor; assay: BxPc-3 tumor xenograft model (IgG hSD5, gemcitabine); format: in vivo, mouse
Experimental: The freshly prepared BxPc-3 and Mia PaCa-2 cancer cells were harvested during the log growth phase and resuspended in PBS for tumor implantation. Each NOD/SCID mouse was subcutaneously inoculated with cancer cells (5×10^6 to BxPc-3 and 1×10^7 to Mia PaCa-2) for tumor formation. The tumor size was measured twice weekly, and the volume was calculated as follows: V=0.5lw^2, where l=the length and w=the width. When the tumor size was approximately 100 mm3, animals were divided into groups that received (a) vehicle alone through intravenous injection (i.v.) once weekly (qwk), (b) control human IgG1 at 20 mg/kg through i.v. qwk, (c) and (d) hSD5 IgG1 at 2 or 20 mg/kg through i.v. qwk, (e) and (f) gemcitabine at 20 or 100 mg/kg through i.v. twice weekly (biw), or (g) hSD5 IgG1 at 2 mg/kg through i.v. qwk combined with gemcitabine at 20 mg/kg through i.v. biw. At the end of the experiment, the antitumor effects were quantified by dividing the tumor volumes in the treatment groups by those in the control groups and multiplying them by 100 to represent tumor growth inhibition (TGI; %). The mice were also examined frequently for overt signs of adverse drug-related side effects.
The pancreatic tissue microarray slide (US Biomax, PA483e) was used to detect and analyze the EphA2 expression of clinical samples. In the xenograft animal model, the excised BxPc-3 and Mia PaCa-2 tumors were fixed in formalin, embedded in paraffin, and sliced for immunohistochemical staining (IHC). Commercial antibodies (Cell signaling, Dako; Agilent Technologies; and Abcam) were used for staining the EphA2 molecule, cell proliferation marker Ki-67, and apoptosis marker cleaved caspase 3. The effects of staining were observed using a Zeiss Axioskop-2 microscope (Carl Zeiss).
Administration of IgG hSD5 (20 mg/kg, iv, qwk, indicated as blue filled inverted triangles) and Gemcitabine (100 mg/kg, iv, biw, indicated as orange filled squares) were used to test the inhibition effect on BxPc-3 tumor growth, n=6, TGI denotes Tumor growth inhibition. (FIG. 7A) Administration of IgG hSD5 (2 mg/kg, iv, qwk, indicated by solid black triangles), Gemcitabine (20 mg/kg, iv, biw, indicated by black open squares), and the experimental group that combined IgG and Gemcitabine treatment simultaneously (indicated by solid red diamonds) were used to teat the growth inhibitory effect of BxPc-3 on the tumor. (FIG. 7B) During treatments, the weight changes of each mouse group were tracked. (FIG. 7C) The expression levels of EphA2, cell proliferation marker Ki67, and apoptosis-related marker cleaved caspase3 in the excised tumor groups were analyzed by IHC staining. (FIG. 7D)

[4] = system: HCT116, SW480 and SW460; assay: MTS growth inhibition, colon cancer cells; format: cell-based; details: 3 days (FIG. 18C)
Experimental: The growth inhibitory effect of hSD5-ADC on the three strains of colon cancer cells were tested under different concentrations. At indicated concentrations interacted with the cancer cells for 3 days, and the effects on the growth of cancer cells were observed by MTS assay. (FIG. 18C)

[5] = system: EphA2pep_P1 and EphA2pep_P2 synthetic peptides; assay: Dot blot assay with synthetic peptides; format: binding; details: dot blot (FIG. 9B)
Source text: We used peptide enzyme-linked immunosorbent assay (ELISA) to identify the designed epitope on EphA2; the BSA-conjugated peptides EphA2pep_P1 (BSA-[…]) and EphA2pep_P2 (BSA-[…]) each represent the two segments of the linear epitope designed on EphA2. EphA2pep_PIP2 (BSA-[…]) represents the two linear epitope sequences connected by a linker. These peptides were synthesized and conjugated with BSA (Kelowna International Scientific). The BSA-conjugated peptides were individually coated on a 96-well microplate at 4° C. overnight. After the wells were blocked with 3% BSA, IgG hSD5 was added and incubated. Next, an HRP-conjugated anti-HA tag antibody (Cell Signaling Technology) was used to detect bound scFv. Finally, the TMB substrate was added for development, and the reaction was stopped by adding 1 N HCl. Absorbance was measured by determining the OD at 450 nm. A dot blot assay was used to detect the binding of IgG hSD5 to the synthesized peptides; […] of individual peptides (1 mg/mL; in triplicate) were dropped on the NC membrane and maintained at RT for complete absorption. Blocking with 3% BSA was performed at RT for 1 h. Then, IgG hSD5 (10 μg/mL) was added, and the reaction was allowed to proceed for 1 h at RT. After the membrane was washed, the HRP-conjugated anti-HA tag antibody was added, and the reaction was allowed to proceed for 1 h at RT. […]

[6] = system: hTERT HPNE, AsPC-1, BxPc-3, and Mia PaCa-2; assay: Growth inhibitory response of pancreatic cell lines to serially diluted hSD5-ADC; format: cell-based, human; details: serial dilution (FIGS. 11A-11D)

B1: IgG hSD5: complete humanized anti-EphA2 IgG (IgG1) of hSD5 (antibody, V domains shown)
VH: QVQLVESGGGLVQPGGSLRLSCAASGFTFSDYGMGWVRQAPGKGLEWVAGISAAGSFTPYGAAVKGRFTISRDNSKNTVYLQMNSLRAEDTAVYYCARIPSGYRAGEIYTWGQGTLVTVSS
VL: LTQPPSVSVSPGQTVRITCSGSSGSYGWYQQKSPGQAPVTLIYDNDKRPSGIPERFSGSSSGSTSTLTISGVQAEDEADYYCGSADSSTYVGMFGGGTKLTVL
B1 was tested, and the “binding response to EphA2 molecules on gastric cancer cells” value [1] was “significant binding response”, the “endocytosis after targeting EphA2” value [2] was “endocytosed from the cell membrane into the cytoplasm” and the “effect on growth of tumors in vivo” value ([3]; BxPc-3 xenograft mice) was “significantly inhibited the growth of tumors”. For the same molecule, the “TGI (tumor growth inhibition)” value ([3]; BxPc-3 xenograft, 20 mg/kg, iv, qwk) was 53.1%, the “expression levels of EphA2 and Ki-67 in the tumors” value ([3]; IHC of removed BxPc-3 tumors, compared with control IgG group (FIG. 7D)) was “significantly decreased” and the “growth inhibitory response of colon cancer cells” value [4] was “does not provide ideal inhibition effect”. The “binding reaction with EphA2pep_P1 compared with EphA2pep_P2” value [5] was “stronger”, the “recognition of EphA2pep_P1 and EphA2pep_P2” value [5] was “can recognize both the antigen fragments” and the “growth inhibitory response of pancreatic cell lines” value [6] was “does not provide ideal inhibition effect”.
